Data as given in US9988424 (DUKE UNIVERSITY, dated 2018).
Where two headings read alike, the source gives them in different places.

Columns and labels:
Experiment in all cases: ELISA, OD405
[1] = target: T1, A.9004SS V1V2 Tags
T1 Env construct: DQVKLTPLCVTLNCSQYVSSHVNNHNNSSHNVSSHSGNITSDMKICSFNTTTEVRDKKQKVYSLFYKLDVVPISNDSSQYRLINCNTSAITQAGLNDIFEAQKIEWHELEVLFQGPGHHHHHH

[2] = target: T2, AE.con gp140CF
T2 construct: also called AE.con.env03 gp140CF

[3] = target: B. 681-7 gp140C
[4] = target: B. 684-6 gp140C
[5] = target: B.040 gp140C
[6] = target: T3, B.62357 140C
T3 construct: also called B.62357 gp140C

[7] = target: B.63521 gp140C
[8] = target: T4, B.63521_V1V2 Tags
T4 Env construct: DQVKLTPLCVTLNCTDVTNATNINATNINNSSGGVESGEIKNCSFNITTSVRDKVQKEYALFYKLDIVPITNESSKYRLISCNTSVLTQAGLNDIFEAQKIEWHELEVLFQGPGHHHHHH

[9] = target: T5, B.Case A2 V1/V2 Tags
T5 Env construct: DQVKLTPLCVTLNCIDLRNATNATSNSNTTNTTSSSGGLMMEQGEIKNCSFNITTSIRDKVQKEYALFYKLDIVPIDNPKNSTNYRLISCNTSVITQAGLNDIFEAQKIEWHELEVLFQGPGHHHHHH

[10] = target: T6, B.con gp140CF
T6 construct: also called B.con.env03 gp140CF

[11] = target: T7, C.1086 gp140
T7 construct: also called C.1086gp140C

[12] = target: Con 6 gp120
[13] = target: T8, D.9009SA V1V2 Tags
T8 Env construct: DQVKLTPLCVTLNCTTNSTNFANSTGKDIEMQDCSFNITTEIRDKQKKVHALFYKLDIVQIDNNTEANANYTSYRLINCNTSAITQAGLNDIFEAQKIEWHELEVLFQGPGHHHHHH

[14] = target: T9, G.con gp140CF
T9 construct: also called G.con.env03 gp140CF

[15] = target: C.CAP206 gp140CF.12 (HIV-1)
[16] = target: T10, gp70 C.1086 V1/V2 (HIV-1 V1V2 on murine leukemia virus gp70)
T10 construct: also called C.gp70 1086C V1V2; C.1086gp70V1V2
T10 chain: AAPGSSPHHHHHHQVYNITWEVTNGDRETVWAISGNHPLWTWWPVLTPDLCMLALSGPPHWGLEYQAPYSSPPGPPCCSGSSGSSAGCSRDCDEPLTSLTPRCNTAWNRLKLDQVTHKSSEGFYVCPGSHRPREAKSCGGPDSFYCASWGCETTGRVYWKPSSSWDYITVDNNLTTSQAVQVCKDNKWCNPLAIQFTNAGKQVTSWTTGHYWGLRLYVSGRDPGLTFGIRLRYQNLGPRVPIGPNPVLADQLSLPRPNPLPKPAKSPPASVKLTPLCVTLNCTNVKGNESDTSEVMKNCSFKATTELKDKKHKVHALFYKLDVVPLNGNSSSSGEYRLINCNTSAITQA

[17] = target: T11, AE.97CNG2XF gp140CF (HIV-1)
T11 construct: also called E.97CNGX2F gp140CF

[18] = target: T12, B.HXB/BAL gp140CFI (HIV-1, UniProt P04578 33-680)
T12 construct: also called B.HxB/Ba gp140 CFI

[19] = target: B.9021 gp140C (HIV-1)
[20] = target: T13, SIV CPZ US-1 gp140CF (SIVcpz)
T13 construct: also called US-1 SIVCPZ gp140CF
T13 chain: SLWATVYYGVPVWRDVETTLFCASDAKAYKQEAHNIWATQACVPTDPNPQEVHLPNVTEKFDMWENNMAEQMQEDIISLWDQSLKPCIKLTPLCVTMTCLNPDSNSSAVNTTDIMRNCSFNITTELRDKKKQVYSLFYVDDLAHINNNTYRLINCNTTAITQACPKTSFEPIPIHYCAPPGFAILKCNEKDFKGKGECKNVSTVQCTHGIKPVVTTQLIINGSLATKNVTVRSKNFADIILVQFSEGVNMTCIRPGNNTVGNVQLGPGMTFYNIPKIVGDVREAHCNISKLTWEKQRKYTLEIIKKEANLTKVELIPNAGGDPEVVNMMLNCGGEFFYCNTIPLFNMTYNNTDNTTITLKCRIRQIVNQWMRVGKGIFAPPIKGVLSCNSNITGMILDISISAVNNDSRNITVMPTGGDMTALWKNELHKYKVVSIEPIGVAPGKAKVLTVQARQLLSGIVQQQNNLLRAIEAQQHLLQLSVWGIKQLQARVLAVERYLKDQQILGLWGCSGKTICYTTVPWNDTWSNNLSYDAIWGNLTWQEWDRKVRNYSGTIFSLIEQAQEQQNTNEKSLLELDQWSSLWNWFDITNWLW

[21] = target: T1, A.9004SS V1V2 Tags
[22] = target: T2, AE.con gp140CF; remark: listed apart in the source
[23] = target: B. 681-7 gp140C; remark: listed apart in the source
[24] = target: B. 684-6 gp140C; remark: listed apart in the source
[25] = target: B.040 gp140C; remark: listed apart in the source
[26] = target: T3, B.62357 140C; remark: listed apart in the source
[27] = target: B.63521 gp140C; remark: listed apart in the source
[28] = target: T4, B.63521_V1V2 Tags
[29] = target: T5, B.Case A2 V1/V2 Tags
[30] = target: T6, B.con gp140CF; remark: listed apart in the source
[31] = target: T7, C.1086 gp140; remark: listed apart in the source
[32] = target: Con 6 gp120; remark: listed apart in the source
[33] = target: T8, D.9009SA V1V2 Tags
[34] = target: T9, G.con gp140CF; remark: listed apart in the source
[35] = target: C.CAP206 gp140CF.12 (HIV-1); remark: listed apart in the source
[36] = target: T10, gp70 C.1086 V1/V2
[37] = target: T11, AE.97CNG2XF gp140CF; remark: listed apart in the source
[38] = target: T12, B.HXB/BAL gp140CFI; remark: listed apart in the source
[39] = target: T13, SIV CPZ US-1 gp140CF

Measured: binding result

B1: CH01_RUA1 (antibody, V domains shown)
VH: EVQLVESGGGVVRPGGSLRLSCAASGFTFDDYGMSWVRQAPGKGLEWVSGINWNGGSTGYADSVKGRFTISRDNAKNSLYLQMNSLRAEDTALYYCARGTDYTIDDQGIRYQGSGTFWYFDLWGRGTLVTVSS
VL: not shown
notes: also called CH01 UA 1; CH01_UA 1
no binding (tested: 10 ug/ml): [1] | [2] | [3] | [4] | [5] | [6] | [7] | [8] | [9] | [10] | [11] | [12] | [13] | [14] | [15] | [16] | [17] | [18] | [19] | [20]

B2: CH01_RUA2 (antibody, V domains shown)
VH: EVQLVESGGGVVRPGGSLRLSCAASGFTFDDYGMSWVRQAPGKGLEWVSGINWNGGSTGYADSVKGRFTISRDNAKNSLYLQMNSLRAEDTALYYCARGTDYTIDDQGILYQGSGTFWYFDLWGRGTLVTVSS
VL: not shown
notes: also called CH01 UA 2; CH01_UA 2
no binding (tested: 10 ug/ml): [21] | [22] | [23] | [24] | [25] | [26] | [27] | [28] | [29] | [30] | [31] | [32] | [33] | [34] | [35] | [36] | [37] | [38] | [39]
